Data taken from US20230293647A1 (AUTOLUS, published 2023).

Tests used:
Assay in all cases: cell microarray
KCNAB2 = molecular target: T1, KCNAB2 (human, UniProt Q13303)
T1 sequence (looked up): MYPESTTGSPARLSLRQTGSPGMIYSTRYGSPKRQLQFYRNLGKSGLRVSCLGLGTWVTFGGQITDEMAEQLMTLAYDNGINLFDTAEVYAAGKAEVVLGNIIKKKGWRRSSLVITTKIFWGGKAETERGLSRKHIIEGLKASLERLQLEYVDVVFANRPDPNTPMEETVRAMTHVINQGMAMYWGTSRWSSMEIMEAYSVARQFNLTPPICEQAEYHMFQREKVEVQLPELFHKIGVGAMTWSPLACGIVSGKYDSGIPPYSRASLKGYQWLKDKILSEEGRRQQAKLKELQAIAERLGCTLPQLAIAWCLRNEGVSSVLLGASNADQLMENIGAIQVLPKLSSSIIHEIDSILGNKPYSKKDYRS

TTYH3 V1 = molecular target: T2, TTYH3 V1 (human, UniProt Q9C0H2)
T2 sequence (looked up): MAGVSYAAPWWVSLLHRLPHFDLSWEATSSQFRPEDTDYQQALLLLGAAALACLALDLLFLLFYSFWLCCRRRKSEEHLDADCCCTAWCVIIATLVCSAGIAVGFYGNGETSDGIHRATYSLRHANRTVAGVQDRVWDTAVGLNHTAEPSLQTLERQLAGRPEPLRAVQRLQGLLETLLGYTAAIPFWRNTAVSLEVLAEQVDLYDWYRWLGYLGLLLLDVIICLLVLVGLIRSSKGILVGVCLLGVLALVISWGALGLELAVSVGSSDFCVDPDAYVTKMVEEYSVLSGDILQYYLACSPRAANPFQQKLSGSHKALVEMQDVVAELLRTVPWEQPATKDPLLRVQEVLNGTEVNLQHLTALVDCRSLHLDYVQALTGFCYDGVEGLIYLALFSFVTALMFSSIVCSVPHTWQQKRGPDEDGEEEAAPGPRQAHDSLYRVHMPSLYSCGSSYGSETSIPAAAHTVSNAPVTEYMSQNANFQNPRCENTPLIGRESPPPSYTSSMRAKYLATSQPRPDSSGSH

SIGLEC14 = molecular target: T3, SIGLEC14 (human, UniProt Q08ET2)
T3 sequence (looked up): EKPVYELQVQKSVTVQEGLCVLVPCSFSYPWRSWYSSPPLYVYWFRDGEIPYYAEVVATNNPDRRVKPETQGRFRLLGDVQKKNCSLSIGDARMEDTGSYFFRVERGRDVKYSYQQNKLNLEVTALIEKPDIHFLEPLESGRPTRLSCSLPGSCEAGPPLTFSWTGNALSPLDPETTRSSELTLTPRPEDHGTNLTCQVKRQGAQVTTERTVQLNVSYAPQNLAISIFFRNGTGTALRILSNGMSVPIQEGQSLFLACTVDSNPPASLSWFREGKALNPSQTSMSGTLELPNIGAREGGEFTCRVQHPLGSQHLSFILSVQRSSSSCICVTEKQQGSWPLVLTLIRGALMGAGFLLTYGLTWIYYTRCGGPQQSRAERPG

PRCD = molecular target: T4, PRCD (human, UniProt Q00LT1)
T4 sequence (looked up): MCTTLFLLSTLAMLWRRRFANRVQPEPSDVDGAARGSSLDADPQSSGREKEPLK

EGFR = EGFR (human, UniProt P00533)
[1] = molecular target: SARS-CoV-2 full length Spike expressed on cells (SARS-CoV-2, UniProt P0DTC2 14-1273)

Measured: binding result

B1: Fc LALA-PG only construct with the ACE2 domain omitted (other)
chain: EPKSCDKTHTCPPCPAPEAAGGPSVFLFPPKPKDTLMISRTPEVTCVVVDVSHEDPEVKFNWYVDGVEVHNAKTKPREEQYNSTYRVVSVLTVLHQDWLNGKEYKCKVSNKALGAPIEKTISKAKGQPREPQVYTLPPSREEMTKNQVSLTCLVKGFYPSDIAVEWESNGQPENNYKTTPPVLDSDGSFFLYSKLTVDKSRWQQGNVFSCSVMHEALHNHYTQKSLSLSPGK
notes: also called control Fc (LALA-PG)
no binding: all assays above
